{"source": "paper PMC12455584", "biological_target": "T1, scIHF-His (single-chain IHF, ihfA-linker-ihfB-6xHis) internal_change (Salmonella enterica serovar Typhimurium 14028s?) (UniProt P0A1S0)", "T1 sequence": "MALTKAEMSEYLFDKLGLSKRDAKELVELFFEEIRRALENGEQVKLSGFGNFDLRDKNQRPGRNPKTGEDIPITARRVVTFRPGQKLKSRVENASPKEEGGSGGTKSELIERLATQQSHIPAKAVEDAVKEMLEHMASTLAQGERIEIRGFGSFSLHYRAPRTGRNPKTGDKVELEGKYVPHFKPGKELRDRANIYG", "experiment": "EMSA", "settings": "EMSA: 25 mM Tris pH 8, 75 mM NaCl, 10% glycerol, 0.5 mM DTT, 0.5 mM EDTA, 1 ug poly(dIdC), 0.1 mg/ml BSA, 0.87 pmol DNA in 20 ul, 37 C 10 min; gel 4-15% PAGE …", "data": [{"sequence": "CCCTCGTGTACCATTGTTTACTTTTTGATCTAAAAATTACATCAAATGAACACAAAAAACGGTATAAAAAACGCTC (double strand) [intA promoter IHF BS(+)]", "values": [{"measurement": "binding", "value": "binds"}]}]}
